According to patent publication US20100080806A1 (INSTITUTE OF BASIC MEDICAL SCIENCES OF CHINESE ACADEMY OF …, published 2010):

Experiments:
[1] = target: T1, recombinant human DR4 extracellular domain protein expressed in E. coli (human, UniProt O00220 24-239); assay: ELISA, plate coated with recombinant DR4 extracellular domain
T1 construct: extracellular domain; also called death receptor 4; TRAIL-R1
Procedure: (§1) ELISA plates (Costar, USA) were coated with recombinant human DR4 or DR5 extracellular domain protein expressed in E. coli over night, blocked with 5% nonfat milk at room temperature for two hours. […] The absorbency at 492 nm was measured on a microtiter reader of enzyme-labelled machine, Wellscan MK3 (Thermo Labsystems, Finland).

[2] = target: T2, recombinant human DR5 extracellular domain protein expressed in E. coli (human, UniProt O14763 56-210); assay: ELISA on plate-coated recombinant DR5 extracellular domain, single-site fit (GraphPad)
T2 construct: extracellular domain; also called death receptor 5; TRAIL-R2
Procedure: as §1

T1 sequence (O00220 24-239): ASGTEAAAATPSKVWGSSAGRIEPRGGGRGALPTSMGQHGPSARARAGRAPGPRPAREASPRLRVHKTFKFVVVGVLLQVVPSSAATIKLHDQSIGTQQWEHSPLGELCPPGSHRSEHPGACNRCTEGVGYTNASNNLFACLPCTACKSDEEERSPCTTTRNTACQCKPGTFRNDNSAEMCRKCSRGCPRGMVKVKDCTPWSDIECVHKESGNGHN

- binding result [1]: no binding
- Kd [2]: 0.3 nM
B1: monoclonal antibody AD5-10 against human TRAIL receptor DR5 (antibody, IgG3, V domains shown)
VH: QIQLVQSGPELKKPGETVKISCKASGYTFTDFSMNWVKQAPGKGLKWMGWINTETGEPTYADDFKGRFALSMETSASTAYLQINNLKNEDTATYFCVRIDYWGQGTTLTVSS
VL: DVVMTQTPLSLPVSLGDQASISCRSSQSLVHSNGNTYLHWYLQKPGQSPKLLIYKVSNRFSGVPDRFSGSGSGTDFTLKISRVEAEDLGVYFCFQSTHVPHTFGGGTKLEIKR
notes: Murine hybridoma antibody (CGMCC 1192), subtype IgG3 kappa; also called anti-human TRAIL receptor DR5 mAb; mAb DR5
